Experimental data from patent US20250161478A1, “LINKER PAYLOADS AND CONJUGATES THEREOF” (priority 2021, published 2025).

Target: TYRP1 antigen on human melanoma cells (IGR-1, SK-MEL-30, SK-MEL-28) (human) (UniProt P17643)
Assay: cell-based or functional assay

TAAuM (anti-mGP75-maleimidoacetyl-β-Ala-Val-Ser(Glc)-PAB-MMAU), DAR 10 (antibody)
IC50, cell viability (PrestoBlue), IGR-1 cells: 1.3 nM
